One block for each molecule: values may come before it. Positions of bridges follow the written chain, without caps; N, C: chain ends. No end group written: not given here. *: point of attachment. 125I = [125I]*
What was measured:
[1] = target: rat CCKB receptor (rat) (UniProt P30553); test: cell-based or functional assay
[2] = target: human GRF receptor (human) (UniProt Q02643); test: cell-based or functional assay
[3] = target: yeast Gβγ (Saccharomyces cerevisiae) (UniProt P18851); test: cell-based or functional assay
Chain of yeast Gβγ (Saccharomyces cerevisiae) (P18851 whole entry, chain 1 of 2): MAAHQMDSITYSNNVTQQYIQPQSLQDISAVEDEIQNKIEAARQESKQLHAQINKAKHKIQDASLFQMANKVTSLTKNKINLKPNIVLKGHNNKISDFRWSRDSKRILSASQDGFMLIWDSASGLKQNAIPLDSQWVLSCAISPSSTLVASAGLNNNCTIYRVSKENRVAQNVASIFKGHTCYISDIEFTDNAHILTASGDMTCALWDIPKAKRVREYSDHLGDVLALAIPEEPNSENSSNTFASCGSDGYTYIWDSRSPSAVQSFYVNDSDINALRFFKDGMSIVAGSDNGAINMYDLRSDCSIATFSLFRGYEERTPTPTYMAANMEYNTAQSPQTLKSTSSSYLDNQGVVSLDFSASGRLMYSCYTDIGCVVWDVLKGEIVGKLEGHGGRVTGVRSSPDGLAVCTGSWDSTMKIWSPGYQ
Chain of yeast Gβγ (Saccharomyces cerevisiae) (P18852 1-107, chain 2 of 2, further chain): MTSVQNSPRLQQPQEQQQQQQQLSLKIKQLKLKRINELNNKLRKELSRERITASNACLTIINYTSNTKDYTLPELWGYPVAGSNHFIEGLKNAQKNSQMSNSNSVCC

[4] = target: T1, rat SSTR2 somatostatin receptor subtype (rat, UniProt P30680 1-369); test: radioligand saturation binding, yeast membranes coexpressing Scg1/Gαi2
T1 construct: whole, on cells; Tested in yeast cells or crude yeast membranes; also called somatostatin receptor subtype 2
T1 sequence (P30680 whole entry): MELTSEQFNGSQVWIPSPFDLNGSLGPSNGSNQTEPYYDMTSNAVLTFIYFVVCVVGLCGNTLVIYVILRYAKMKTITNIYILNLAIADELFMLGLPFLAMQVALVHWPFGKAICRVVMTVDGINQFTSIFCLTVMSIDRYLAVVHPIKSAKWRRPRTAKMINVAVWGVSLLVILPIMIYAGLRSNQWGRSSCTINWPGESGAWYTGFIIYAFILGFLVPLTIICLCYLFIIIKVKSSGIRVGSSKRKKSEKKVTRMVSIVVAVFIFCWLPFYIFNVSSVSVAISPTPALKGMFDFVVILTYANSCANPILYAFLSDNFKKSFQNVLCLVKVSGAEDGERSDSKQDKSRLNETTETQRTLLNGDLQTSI

Chain of rat CCKB receptor (rat) (P30553 whole entry): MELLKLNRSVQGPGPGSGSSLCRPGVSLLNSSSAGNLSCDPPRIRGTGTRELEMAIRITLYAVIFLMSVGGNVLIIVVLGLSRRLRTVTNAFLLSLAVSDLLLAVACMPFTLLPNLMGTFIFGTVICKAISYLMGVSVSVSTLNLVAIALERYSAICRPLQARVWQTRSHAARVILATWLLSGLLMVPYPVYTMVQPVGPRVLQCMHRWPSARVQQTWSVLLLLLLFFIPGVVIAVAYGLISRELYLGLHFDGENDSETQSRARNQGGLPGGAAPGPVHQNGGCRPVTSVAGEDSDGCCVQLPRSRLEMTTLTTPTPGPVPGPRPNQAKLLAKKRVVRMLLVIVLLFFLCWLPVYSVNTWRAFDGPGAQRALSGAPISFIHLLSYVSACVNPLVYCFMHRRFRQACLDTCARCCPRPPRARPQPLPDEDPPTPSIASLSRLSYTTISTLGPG
Chain of human GRF receptor (human) (Q02643 23-423): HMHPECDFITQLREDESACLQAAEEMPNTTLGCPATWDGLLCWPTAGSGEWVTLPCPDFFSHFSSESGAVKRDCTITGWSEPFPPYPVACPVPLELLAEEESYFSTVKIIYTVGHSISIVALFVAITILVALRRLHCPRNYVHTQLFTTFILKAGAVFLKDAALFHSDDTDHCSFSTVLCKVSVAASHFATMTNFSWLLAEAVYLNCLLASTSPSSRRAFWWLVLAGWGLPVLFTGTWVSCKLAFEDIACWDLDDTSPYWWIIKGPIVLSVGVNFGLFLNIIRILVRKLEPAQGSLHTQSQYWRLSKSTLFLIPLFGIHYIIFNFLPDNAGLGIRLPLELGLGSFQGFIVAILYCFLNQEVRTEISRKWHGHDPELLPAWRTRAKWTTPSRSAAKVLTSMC

Molecule: hGRF (1-29)-NH2 (from UniProt P01286 32-60) (peptide)
growth response, agar plate bioassay, strain CY990 [2]: 20 nmol

Molecule: rat Gαi2 (from UniProt P04897 2-355)
reduction of pheromone-induced FUS1-lacZ signaling, CEN plasmid [3]: 16%

The next lines start with the values.

growth response, agar plate bioassay, strains LY628 and LY631 [1]: 10 µg
Molecule: CCK-4 (from UniProt P06307 100-103) (peptide)

Kd [4]: 0.6 nM
Molecule: AGCKNFFWKTY(125I)TSC (disulfide 3-14 (inferred); ends not checked) [[^125I-tyr^11]-somatostatin 14]

Source: US7148053 (BASF AKTIENGESELLSCHAFT, dated 2006)
